# Laboratory results from patent publication US20160264649A1.
# Columns and labels:
# Test in all cases: cell-based or functional assay
# [1] = target: HIV-1 MGRM-F1-016 Env (HIV-1)
# [2] = target: HIV-1 MGRM-AE-002 Env (HIV-1)
# [3] = target: HIV-1 MGRM-AG-005 Env (HIV-1)
# [4] = target: HIV-1 TRJ0.58 (Acute) Env on pseudovirus (HIV-1)
# [5] = target: HIV-1 MGRM-AG-003 Env (HIV-1)
# [6] = target: HIV-1 93MW959 Env on pseudovirus (HIV-1)
# [7] = target: HIV-1 MGRM-C-009 Env on pseudovirus (HIV-1)
# [8] = target: HIV-1 MGRM-F1-022 Env (HIV-1)
# [9] = target: HIV-1 SF162 Env on pseudovirus (HIV-1) (UniProt P19550)
# [10] = target: HIV-1 MGRM-Chronic-B-011 Env on pseudovirus (HIV-1)
# [11] = target: HIV-1 MGRM-C-010 Env on pseudovirus (HIV-1)
# [12] = target: HIV-1 98CN009 Env on pseudovirus (HIV-1)
# [13] = target: HIV-1 MGRM-AE-001 Env (HIV-1)
# [14] = target: HIV-1 92BR020 Env (HIV-1)
# [15] = target: HIV-1 MGRM-Chronic-B-004 Env on pseudovirus (HIV-1)
# [16] = target: HIV-1 MGRM-C-025 Env on pseudovirus (HIV-1)
# [17] = target: HIV-1 MGRM-Chronic-B-002 Env on pseudovirus (HIV-1)
# [18] = target: HIV-1 MGRM-F1-021 Env (HIV-1)
# [19] = target: HIV-1 QH0692.42 (Acute) Env on pseudovirus (HIV-1)
# [20] = target: HIV-1 93IN905 Env on pseudovirus (HIV-1)
# [21] = target: HIV-1 Env of isolate MGRM-Chronic-B-008 (subtype B) (HIV-1)
# [22] = target: HIV-1 Env of isolate 92UG031 (subtype A) (HIV-1)
# [23] = target: HIV-1 Env of pseudovirus isolate MGRM-G-027 (subtype G) (HIV-1)
# [24] = target: HIV-1 Env of isolate MGRM-AE-003 (subtype AE) (HIV-1)
# [25] = target: HIV-1 Env of pseudovirus isolate MGRM-G-019 (subtype G) (HIV-1)
# [26] = target: HIV-1 Env of isolate 98IN022 (subtype C) (HIV-1)
# [27] = target: HIV-1 Env of isolate MG RM-C-028 (subtype C) (HIV-1)
# [28] = target: HIV-1 Env of isolate 98CN009 (subtype CRF07_BC) (HIV-1)
# [29] = target: HIV-1 Env of pseudovirus isolate MGRM-G-001 (subtype G) (HIV-1)
# [30] = target: HIV-1 Env of isolate MGRM-D-004 (subtype D) (HIV-1)
# [31] = target: HIV-1 Env of isolate APV_6 (subtype B) (HIV-1)
# [32] = target: HIV-1 Env of isolate 92WR020 (subtype A) (HIV-1)
# [33] = target: HIV-1 Env of pseudovirus isolate MGRM-G-024 (subtype G) (HIV-1)
# [34] = target: HIV-1 Env of isolate MGRM-F1-010 (subtype F) (HIV-1)
# [35] = target: HIV-1 Env of isolate MGRM-D-016 (subtype D) (HIV-1)
# [36] = target: HIV-1 Env of isolate MGRM-D-008 (subtype D) (HIV-1)
# [37] = target: HIV-1 Env of pseudovirus isolate MGRM-G-015 (subtype G) (HIV-1)
# [38] = target: HIV-1 Env of isolate MGRM-D-026 (subtype D) (HIV-1)
# [39] = target: HIV-1 Env of isolate 97ZA012 (subtype C) (HIV-1)
# [40] = target: HIV-1 Env of isolate 92WR009 (subtype A) (HIV-1)
# [41] = target: HIV-1 Env of isolate MG RM-C-024 (subtype C) (HIV-1)
# [42] = target: HIV-1 Env of isolate 92UG114 (subtype D) (HIV-1)
# [43] = target: HIV-1 Env of isolate MGRM-D-028 (subtype D) (HIV-1)
# [44] = target: HIV-1 Env of isolate MGRM-F1-013 (subtype F) (HIV-1)
# [45] = target: HIV-1 Env of isolate 92TH021 (subtype AE) (HIV-1)
# [46] = target: HIV-1 Env of isolate MGRM-D-012 (subtype D) (HIV-1)
# [47] = target: HIV-1 Env of isolate 92WR021 (subtype A) (HIV-1)
# Sequence of 1443_C16 (PG16) (TCN-116) (antibody) (VH): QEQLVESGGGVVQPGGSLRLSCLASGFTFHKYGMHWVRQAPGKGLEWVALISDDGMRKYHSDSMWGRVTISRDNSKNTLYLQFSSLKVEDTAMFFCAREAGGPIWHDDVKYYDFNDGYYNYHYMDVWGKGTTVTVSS
# Sequence of 1443_C16 (PG16) (TCN-116) (antibody) (VL): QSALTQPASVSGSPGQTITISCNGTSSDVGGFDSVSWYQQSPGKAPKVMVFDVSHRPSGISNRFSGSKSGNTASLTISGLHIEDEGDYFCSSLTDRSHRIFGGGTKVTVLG
substance,measurement,setting,value
4E10 (antibody),IC50 (pseudovirus neutralization),[1],7.61 µg/mL
same,"IC50 (µg/ml), pseudovirus neutralization",[2],0.55 µg/mL
same,"IC50 (µg/ml), pseudovirus neutralization",[3],2.13 µg/mL
same,IC50,[4],11.9 µg/mL
same,"IC50 (µg/ml), pseudovirus neutralization",[5],0.64 µg/mL
same,IC50,[6],4.55 µg/mL
same,IC50,[7],0.56 µg/mL
same,IC50 (pseudovirus neutralization),[8],1.01 µg/mL
same,IC50,[9],4.28 µg/mL
same,IC50,[10],1.07 µg/mL
same,IC50,[11],11 µg/mL
same,IC50,[12],2.46 µg/mL
same,"IC50 (µg/ml), pseudovirus neutralization",[13],0.85 µg/mL
same,neutralization IC50,[14],41.4 µg/mL
same,neutralization IC90,[14],> 50 µg/mL
same,IC50,[15],3.7 µg/mL
same,IC50,[16],5.58 µg/mL
same,IC50,[17],2.19 µg/mL
same,IC50 (pseudovirus neutralization),[18],1.87 µg/mL
same,IC50,[19],12.7 µg/mL
same,IC50,[20],1.26 µg/mL
1443_C16 (PG16) (TCN-116) (antibody),IC50 (pseudovirus neutralization),[1],1.12 µg/mL
same,"IC50 (µg/ml), pseudovirus neutralization",[2],0.01 µg/mL
same,"IC50 (µg/ml), pseudovirus neutralization",[3],> 50 µg/mL
same,IC50,[4],1.16 µg/mL
same,"IC50 (µg/ml), pseudovirus neutralization",[5],> 50 µg/mL
same,IC50,[6],0.007 µg/mL
same,IC50,[7],> 50 µg/mL
same,IC50 (pseudovirus neutralization),[8],0.08 µg/mL
same,IC50,[9],> 50 µg/mL
same,IC50,[10],> 50 µg/mL
same,IC50,[11],> 50 µg/mL
same,IC50,[12],5.76 µg/mL
same,"IC50 (µg/ml), pseudovirus neutralization",[13],4.33 µg/mL
same,neutralization IC50,[14],> 50 µg/mL
same,neutralization IC90,[14],> 50 µg/mL
same,IC50,[15],0.01 µg/mL
same,IC50,[16],0.04 µg/mL
same,IC50,[17],3.06 µg/mL
same,IC50 (pseudovirus neutralization),[18],> 50 µg/mL
same,IC50,[19],> 50 µg/mL
same,IC50,[20],0.25 µg/mL
PGV04 (antibody),IC50,[21],0.166 µg/mL
same,IC50 (pseudovirus neutralization),[22],4.46 µg/mL
same,IC50,[23],0.125 µg/mL
same,IC50 (pseudovirus neutralization),[24],6.4 µg/mL
same,IC50,[25],0.027 µg/mL
same,"IC50 (µg/mL), pseudovirus neutralization",[26],5.69 µg/mL
same,"IC50 (µg/mL), pseudovirus neutralization",[27],0.149 µg/mL
same,IC50 (neutralization),[28],0.0125 µg/mL
same,IC50,[29],> 50 µg/mL
same,IC50 (pseudovirus neutralization),[30],43.2 µg/mL
same,IC50,[31],24.2 µg/mL
same,IC50 (pseudovirus neutralization),[32],0.055 µg/mL
same,IC50,[33],0.033 µg/mL
same,IC50 (pseudovirus neutralization),[34],0.184 µg/mL
same,IC50 (pseudovirus neutralization),[35],0.201 µg/mL
same,IC50 (pseudovirus neutralization),[36],3.56 µg/mL
same,IC50,[37],0.333 µg/mL
same,IC50 (pseudovirus neutralization),[38],1.76 µg/mL
same,"IC50 (µg/mL), pseudovirus neutralization",[39],0.041 µg/mL
same,IC50 (pseudovirus neutralization),[40],0.108 µg/mL
same,"IC50 (µg/mL), pseudovirus neutralization",[41],> 50 µg/mL
same,IC50 (pseudovirus neutralization),[42],0.461 µg/mL
same,IC50 (pseudovirus neutralization),[43],1.01 µg/mL
same,IC50 (pseudovirus neutralization),[44],0.084 µg/mL
same,IC50 (pseudovirus neutralization),[45],1.29 µg/mL
same,IC50 (pseudovirus neutralization),[46],0.125 µg/mL
same,IC50 (pseudovirus neutralization),[47],0.038 µg/mL
VRC01 (antibody),IC50,[21],0.155 µg/mL
same,IC50 (pseudovirus neutralization),[22],0.469 µg/mL
same,IC50,[23],0.36 µg/mL
same,IC50 (pseudovirus neutralization),[24],0.685 µg/mL
same,IC50,[25],0.06 µg/mL
same,IC50,[26],0.342 µg/mL
same,IC50,[27],0.319 µg/mL
same,IC50 (neutralization),[28],0.346 µg/mL
same,IC50,[29],0.0371 µg/mL
same,IC50 (pseudovirus neutralization),[30],1.25 µg/mL
same,IC50,[31],1.81 µg/mL
same,IC50 (pseudovirus neutralization),[32],0.13 µg/mL
same,IC50,[33],0.025 µg/mL
same,IC50 (pseudovirus neutralization),[34],0.097 µg/mL
same,IC50 (pseudovirus neutralization),[35],0.452 µg/mL
same,IC50 (pseudovirus neutralization),[36],0.854 µg/mL
same,IC50,[37],0.548 µg/mL
same,IC50 (pseudovirus neutralization),[38],0.435 µg/mL
same,IC50,[39],0.088 µg/mL
same,IC50 (pseudovirus neutralization),[40],0.187 µg/mL
same,IC50,[41],3.4 µg/mL
same,IC50 (pseudovirus neutralization),[42],0.33 µg/mL
same,IC50 (pseudovirus neutralization),[43],0.377 µg/mL
same,IC50 (pseudovirus neutralization),[44],0.17 µg/mL
same,IC50 (pseudovirus neutralization),[45],0.616 µg/mL
same,IC50 (pseudovirus neutralization),[46],0.216 µg/mL
same,IC50 (pseudovirus neutralization),[47],0.066 µg/mL
